Results: publication PMC12309606

Assays:
[1] = molecular target: Biotinylated C-terminal cysteine-tagged MR1–5-OP-RU (SPR) (human) (UniProt Q95460); assay: SPR
M33-64 TCR tetramer = assay: flow cytometry, TCR tetramer staining on C1R.MR1 mutant cells; conditions: 1 μM 5-OP-RU for 3 h; stained 30 min at room temperature; parent: est. 6400; read off a plot
[2] = molecular target: MAV36 TCR Ser49β alanine mutant on HEK293T cells (human); assay: flow cytometry on cells; PE-labeled MR1–5-OP-RU tetramer (0.5 μg/ml, nonsaturating) staining of HEK293T cells transiently expressing MAV36 TCR or alanine mutants with CD3, 15 min at room temperature; gates normalised for TCR level by anti-Vβ3
[3] = molecular target: MAV36 TCR Gln99β alanine mutant on HEK293T cells (human); assay: as above
[4] = molecular target: MR1 on C1R.MR1 cells pulsed with Ac-6-FP (UniProt Q95460); assay: flow cytometry, TCR tetramer staining on C1R.MR1 cells; conditions: Ac-6-FP (10 µM), pulsed for 5 h
[5] = molecular target: MR1 on C1R.MR1 cells pulsed with 5-OP-RU (UniProt Q95460); assay: as above; conditions: 5-OP-RU (10 µM), pulsed for 5 h
[6] = molecular target: MR1 on untreated C1R.MR1 cells (UniProt Q95460); assay: as above; conditions: No Ligand

Substance	response (M33-64 TCR tetramer)	further results
A-F7 TCR (TRAV1-2–TRBV6-1), soluble		Kd [1]: 2700 nM
MR1 on C1R.MR1 cells pulsed with 5-OP-RU (from UniProt Q95460) R79A	6600 MFI	
MR1 on C1R.MR1 cells pulsed with 5-OP-RU (from UniProt Q95460) L151A	7000 MFI	
MR1 on C1R.MR1 cells pulsed with 5-OP-RU (from UniProt Q95460) L65A	1300 MFI	
MR1 on C1R.MR1 cells pulsed with 5-OP-RU (from UniProt Q95460) Q141A	5400 MFI	
MR1 on C1R.MR1 cells pulsed with 5-OP-RU (from UniProt Q95460) R61A	5000 MFI	
MR1 on C1R.MR1 cells pulsed with 5-OP-RU (from UniProt Q95460) E158A	2800 MFI	
MR1 on C1R.MR1 cells pulsed with 5-OP-RU (from UniProt Q95460) T138A	5500 MFI	
PE-labeled MR1–5-OP-RU tetramer (from UniProt Q95460 23-341; P61769 21-119) (complex)		reduction of tetramer staining against the wildtype TCR [2]: 50%; reduction of tetramer staining against the wildtype TCR [3]: 50%
MR1 on C1R.MR1 cells pulsed with 5-OP-RU (from UniProt Q95460) N146A	4000 MFI	
MR1 on C1R.MR1 cells pulsed with 5-OP-RU (from UniProt Q95460) M72A	5900 MFI	
MR1 on C1R.MR1 cells pulsed with 5-OP-RU (from UniProt Q95460) R167A	5700 MFI	
MR1 on C1R.MR1 cells pulsed with 5-OP-RU (from UniProt Q95460) D57A	6100 MFI	
MR1 on C1R.MR1 cells pulsed with 5-OP-RU (from UniProt Q95460) V75A	6400 MFI	
M33-64 TCR tetramer Tyr95αPhe		response [4]: 20900 MFI; response [5]: 140000 MFI; response [6]: 171 MFI
MR1 on C1R.MR1 cells pulsed with 5-OP-RU (from UniProt Q95460) N155A	1600 MFI	
M33-64 TCR tetramer Tyr95αAla		response [4]: 166 MFI; response [5]: 61300 MFI; response [6]: 162 MFI
MR1 on C1R.MR1 cells pulsed with 5-OP-RU (from UniProt Q95460) H148A	4600 MFI	
